Biological target: RPA1 (subunit of recombinant RPA and Alt-RPA) (human, UniProt P27694 1-616)
Experiment: mass photometry

RPA1 (subunit of recombinant RPA and Alt-RPA), sequence (P27694 whole entry): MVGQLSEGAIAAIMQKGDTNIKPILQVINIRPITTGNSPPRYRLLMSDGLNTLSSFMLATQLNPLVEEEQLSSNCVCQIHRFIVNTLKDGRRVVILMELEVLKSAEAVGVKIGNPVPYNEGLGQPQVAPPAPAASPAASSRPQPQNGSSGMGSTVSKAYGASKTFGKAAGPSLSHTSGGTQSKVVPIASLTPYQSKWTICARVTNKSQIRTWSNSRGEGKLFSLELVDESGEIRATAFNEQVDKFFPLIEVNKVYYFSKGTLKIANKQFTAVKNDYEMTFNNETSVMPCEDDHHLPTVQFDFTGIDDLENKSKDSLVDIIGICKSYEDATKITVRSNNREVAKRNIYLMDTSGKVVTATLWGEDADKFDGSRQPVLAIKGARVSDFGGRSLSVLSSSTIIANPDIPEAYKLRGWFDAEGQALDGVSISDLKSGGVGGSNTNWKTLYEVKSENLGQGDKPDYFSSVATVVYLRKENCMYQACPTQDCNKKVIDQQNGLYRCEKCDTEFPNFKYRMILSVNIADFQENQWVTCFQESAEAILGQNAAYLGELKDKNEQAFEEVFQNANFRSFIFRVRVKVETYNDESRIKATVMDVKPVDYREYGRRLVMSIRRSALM

B1: RPA4 (subunit of recombinant Alt-RPA) (natural protein, human, UniProt Q13156 1-261, looked up)
chain: MSKSGFGSYGSISAADGASGGSDQLCERDATPAIKTQRPKVRIQDVVPCNVNQLLSSTVFDPVFKVRGIIVSQVSIVGVIRGAEKASNHICYKIDDMTAKPIEARQWFGREKVKQVTPLSVGVYVKVFGILKCPTGTKSLEVLKIHVLEDMNEFTVHILETVNAHMMLDKARRDTTVESVPVSPSEVNDAGDNDESHRNFIQDEVLRLIHECPHQEGKSIHELRAQLCDLSVKAIKEAIDYLTVEGHIYPTVDREHFKSAD
binding result: binds
